Where a chain is given by its changes, count along the chain named. Numbers in names are those of the source.

Data on three molecules can be found in patent publication US20240141060A1 (Novartis, published 2024).

Experiment [1] has as its target T1, recombinant rat CD73 (Sino Biological 80375-R08H) (rat, UniProt P21588 29-551).
T1 construct: Bought protein; also called rCD73; rat CD73/His
T1 sequence (looked up): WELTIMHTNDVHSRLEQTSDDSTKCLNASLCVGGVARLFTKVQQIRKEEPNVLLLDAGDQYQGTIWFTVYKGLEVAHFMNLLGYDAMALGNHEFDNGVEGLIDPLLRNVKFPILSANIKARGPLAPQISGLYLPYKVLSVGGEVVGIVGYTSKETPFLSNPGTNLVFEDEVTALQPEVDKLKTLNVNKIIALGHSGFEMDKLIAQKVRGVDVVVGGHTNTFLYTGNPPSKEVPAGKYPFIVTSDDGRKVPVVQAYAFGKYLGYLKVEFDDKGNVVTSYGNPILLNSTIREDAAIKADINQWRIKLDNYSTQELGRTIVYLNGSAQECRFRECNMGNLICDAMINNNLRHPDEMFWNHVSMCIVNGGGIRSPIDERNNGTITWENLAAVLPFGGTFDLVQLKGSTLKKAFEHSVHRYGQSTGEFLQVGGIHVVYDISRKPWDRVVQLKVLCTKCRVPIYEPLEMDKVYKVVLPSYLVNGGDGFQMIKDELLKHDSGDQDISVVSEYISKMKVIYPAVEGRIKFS
In words: Biacore SPR, Fab captured by anti-human Fab on CM5 chip, CD73 as analyte. How it is done:
(§1) Proteins used were as follows: recombinant human CD73 (R&D Systems 5795-EN); recombinant cynomolgus monkey CD73 (Sino Biological 90912-C08H); recombinant mouse CD73 (R&D Systems 4488-EN); and recombinant rat CD73 (Sino Biological 80375-R08H). Anti-human Fab (GE Healthcare Life Sciences) was immobilized on all 4 flow cells (Fc) on a CM5 chip (GE). […] 0.01 nM to 90 nM CD73 (3-fold dilution series) was flown over all 4 Fcs. All samples were diluted in running buffer HBS-EP+(pH 7.4, 0.01 M HEPES, 150 mM NaCl, 3 mM EDTA and 0.05% (v/v) P20).

For experiment [2], the target named is T2, Recombinant Mouse 5′-Nucleotidase/CD73 Protein, CF (R&D Systems Cat: 4488-EN) (mouse, UniProt Q61503 29-549, limits assumed).
T2 construct: Bought protein; also called Mouse CD73-His; recombinant mouse CD73; not shown: His tag
T2 sequence (looked up): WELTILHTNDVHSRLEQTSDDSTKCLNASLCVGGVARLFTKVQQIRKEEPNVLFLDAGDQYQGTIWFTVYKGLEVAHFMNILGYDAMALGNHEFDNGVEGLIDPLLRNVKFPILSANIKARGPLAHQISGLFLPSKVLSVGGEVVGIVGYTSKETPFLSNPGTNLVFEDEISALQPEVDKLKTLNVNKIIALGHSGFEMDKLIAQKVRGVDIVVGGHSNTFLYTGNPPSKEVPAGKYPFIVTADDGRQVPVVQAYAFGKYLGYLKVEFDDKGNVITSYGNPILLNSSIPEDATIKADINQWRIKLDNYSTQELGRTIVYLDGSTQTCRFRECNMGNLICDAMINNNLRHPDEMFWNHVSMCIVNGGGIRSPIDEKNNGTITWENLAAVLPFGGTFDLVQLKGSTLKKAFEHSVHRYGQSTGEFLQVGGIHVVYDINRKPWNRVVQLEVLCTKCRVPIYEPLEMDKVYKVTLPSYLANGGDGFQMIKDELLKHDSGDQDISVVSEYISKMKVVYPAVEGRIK
The experiment is described as above. How it is done:
as §1

Experiment [3] concerns the target T3, Recombinant Human 5′-Nucleotidase/CD73 Protein, CF (R&D Systems Cat: 5795-EN) (human, UniProt P21589 27-547).
T3 construct: Bought protein; also called Human CD73-His; recombinant human CD73; not shown: His tag
T3 sequence (looked up): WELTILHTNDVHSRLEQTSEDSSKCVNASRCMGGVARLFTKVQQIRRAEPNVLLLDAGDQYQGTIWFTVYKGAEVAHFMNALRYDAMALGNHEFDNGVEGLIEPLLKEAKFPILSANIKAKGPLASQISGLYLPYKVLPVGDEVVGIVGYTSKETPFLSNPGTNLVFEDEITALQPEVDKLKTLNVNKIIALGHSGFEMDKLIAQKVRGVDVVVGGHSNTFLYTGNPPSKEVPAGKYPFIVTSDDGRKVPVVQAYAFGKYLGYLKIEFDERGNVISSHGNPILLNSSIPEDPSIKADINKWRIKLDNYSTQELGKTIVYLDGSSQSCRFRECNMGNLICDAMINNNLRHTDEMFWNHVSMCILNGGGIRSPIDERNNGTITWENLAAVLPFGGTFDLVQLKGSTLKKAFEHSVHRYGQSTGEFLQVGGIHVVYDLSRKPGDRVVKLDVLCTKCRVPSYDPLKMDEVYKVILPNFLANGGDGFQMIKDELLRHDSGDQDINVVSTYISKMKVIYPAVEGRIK
Nature of the experiment: Biacore SPR, Fab captured by anti-human Fab on CM5 chip, CD73 0.01-90 nM as analyte. The method, then: as §1

The target of experiment [4] is T4, Cynomolgus CD73/NT5E Protein (His Tag) (Sino Biological Cat: 90192-C08H-50) (cynomolgus monkey, UniProt A0A2K5V5U7 27-547).
T4 construct: treated as one protein; also called Cynomolgus CD73-His; recombinant cynomolgus monkey CD73; not shown: His tag
T4 sequence: T3 sequence (looked up) with M199T, T350A, V466I
Described as above. The method, then:
as §1

Experiment [5] deals with T1, recombinant rat CD73 (Sino Biological …). Nature of the experiment: Biacore SPR, His-tagged CD73 captured by anti-His antibody on CM5 chip, Fab as analyte. The method, then: (§2) The anti-His Ab was directly immobilized onto a CM5 chip surface by amine coupling. The His-tagged human CD73/His, cynomolgus monkey CD73/His, mouse CD73/His or rat CD73/His was flowed over and captured at a desired resonance unit (RU) for an Rmax of 20. Antibody analyte concentrations in serial dilutions of IgG or Fab were flowed over at 60 μL/min. The sensorgrams were analyzed using the manufacturer's software for a 1:1 binding model.

Experiment [6] addresses T2, Recombinant Mouse 5′-Nucleotidase/CD73 …. The description is as above. The method, then: as §2
Experiment [7] deals with T1, recombinant rat CD73 (Sino Biological …). Nature of the experiment: Biacore SPR, His-tagged CD73 captured by anti-His antibody on CM5 chip, antibody as analyte. The method, then:
as §2

Experiment [8] addresses T2, Recombinant Mouse 5′-Nucleotidase/CD73 …. Described as above. The method, then:
as §2

The target in experiment [9] is T3, Recombinant Human 5′-Nucleotidase/CD73 …. Nature of the experiment: Biacore SPR, His-tagged CD73 captured by anti-His antibody on CM5 chip, IgG as analyte, 1:1 model. The method, then:
as §2
(§3) Therefore, given that 1:1 bidentate binding will favor avidity, the whole Ab affinities were used rather than Fab measurements.

The target of experiment [10] is T4, Cynomolgus CD73/NT5E Protein (His Tag) …. Described as above. The method, then:
as §2, §3

B1: Fab 373 (Fab, V domains shown)
VH: EVQLLESGGGLVQPGGSLRLSCAASGFTFHRYAMSWVRQAPGKGLEWVSAISGSGMNTYYADSVKGRFTISRDNSKNTLYLQMNSLRAEDTAVYYCARGGLYGSGSYLSDFDLWGRGTLVTVSS
VL: EIVLTQSPATLSVSPGERATLSCRASQSVGSNLAWYQQKPGQAPRLLIYGASTRATGIPARFSGSGSGTEFTLTISSLQSEDFAVYYCQQHNAFPYTFGGGTKVEIKR
On to B1, for which the binding result in [1] and in [2] was “no binding (tested: 0.01 nM to 90 nM CD73)” throughout. The Kd came out at 13 nM in experiment [3] and 9.46 nM in [4].

B2: 373.A Fab (Fab, V domains shown)
VH: B1 VH
VL: B1 VL
Consider B2, for which the binding result in experiment [5] and in experiment [6] was “no binding” throughout.

B3: anti-CD73 antibody 373.A (antibody, human IgG4 S228P, kappa, V domains shown)
VH: B1 VH
VL: B1 VL
notes: IgG4 S228P format
As to B3, the binding result in experiment [7] and in experiment [8] was “no binding” each time. Moreover, the Kd in [9] is 0.991 nM; in experiment [10] it was 0.068 nM.
